Measured values reported in PMC9288967.

Target: SARS-CoV-2 spike RBD (wild type) (SARS-CoV-2) (UniProt P0DTC2)
Assay: cross-linking

Row | Substance | kobs (apparent first-order constant of cross-linking)
1 | mNb6(108FFY) (VHH) | 0.244 h⁻¹
2 | mNb6(108FSY) (VHH) | 0.102 h⁻¹
